This is an account of results in patent publication US20200165335A1 (Seagen, published 2020).

Numbering of substitutions follows the chain as printed.

To fix the notation:
T1: human LIV-1 (human, UniProt Q13433 29-755)
T1 construct: also called hLIV-1; Q13433
T1 sequence: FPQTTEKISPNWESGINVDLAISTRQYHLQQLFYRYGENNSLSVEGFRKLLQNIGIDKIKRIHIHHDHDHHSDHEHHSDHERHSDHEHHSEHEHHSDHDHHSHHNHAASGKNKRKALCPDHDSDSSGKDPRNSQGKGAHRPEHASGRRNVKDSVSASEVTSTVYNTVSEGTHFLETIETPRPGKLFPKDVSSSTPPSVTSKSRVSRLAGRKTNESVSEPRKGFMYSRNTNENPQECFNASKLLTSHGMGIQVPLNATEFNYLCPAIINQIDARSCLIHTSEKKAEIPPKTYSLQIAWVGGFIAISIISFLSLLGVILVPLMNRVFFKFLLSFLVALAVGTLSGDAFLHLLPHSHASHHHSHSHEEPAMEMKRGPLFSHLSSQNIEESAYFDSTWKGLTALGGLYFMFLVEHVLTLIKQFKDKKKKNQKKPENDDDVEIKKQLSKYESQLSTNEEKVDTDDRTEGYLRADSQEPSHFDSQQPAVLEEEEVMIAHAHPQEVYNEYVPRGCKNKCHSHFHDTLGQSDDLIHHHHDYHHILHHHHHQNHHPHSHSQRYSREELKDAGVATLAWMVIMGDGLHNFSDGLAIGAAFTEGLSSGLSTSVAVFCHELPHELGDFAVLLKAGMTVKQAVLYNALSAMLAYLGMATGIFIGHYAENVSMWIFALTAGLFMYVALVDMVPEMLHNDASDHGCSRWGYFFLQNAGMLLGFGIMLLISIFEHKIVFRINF

B1: humanized BR2-14a antibody HALA (antibody, V domains shown)
VH: QVQLVQSGAEVKKPGASVKVSCKASGYTFTDYYMHWVRQAPGQGLEWMGWIDPENGDTEYAPTFQGRVTMTRDTSISTAYMELSRLRSDDTAVYYCARHDAHYGTWFAYWGQGTLVTVSS
VL: DVVMTQSPLSLPVTLGQPASISCRSSQSIIRNDGNTYLEWFQQRPGQSPRRLIYRVSNRFSGVPDRFSGSGSGTDFTLKISRVEAEDVGVYYCFQGSHVPYTFGGGTKVEIKR
notes: also called hLIV-1 HA + hLIV-1 LA
B2: humanized BR2-14a antibody HELD (antibody, V domains shown)
VH: QVQLVQSGAEVKKPGASVKVSCKASGFNIEDYYMHWVRQAPGQGLEWIGWIDPENGDTEYAPTFQGKATMTADTSINTAYMELSRLRSDDTAVYYCNVHDAHYGTWFAYWGQGTLVTVSS
VL: B1 VL with R50K
notes: also called hLIV-1 HE + hLIV-1 LD
B3: humanized BR2-14a antibody HALF (antibody, V domains shown)
VH: B1 VH
VL: B1 VL with F41Y, Q42L, R44K, R50K, R51L
notes: also called hLIV-1 HA + hLIV-1 LF
B4: humanized BR2-14a antibody HDLE (antibody, V domains shown)
VH: B1 VH with Y27F, A97N, R98V
VL: B1 VL with R51L
notes: also called hLIV-1 HD + hLIV-1 LE
B5: humanized BR2-14a antibody HELF (antibody, V domains shown)
VH: B2 VH
VL: B1 VL with F41Y, Q42L, R44K, R50K, R51L
notes: also called hLIV-1 HE + hLIV-1 LF
B6: humanized BR2-14a antibody HDLD (antibody, V domains shown)
VH: B1 VH with Y27F, A97N, R98V
VL: B1 VL with R50K
notes: also called hLIV-1 HD + hLIV-1 LD
B7: humanized BR2-14a antibody HCLE (antibody, V domains shown)
VH: B1 VH with R67K, V68A, R72A
VL: B1 VL with R51L
notes: also called hLIV-1 HC + hLIV-1 LE
B8: humanized BR2-14a antibody HBLE (antibody, V domains shown)
VH: B1 VH with F29I, T30E, S77N
VL: B1 VL with R51L
notes: also called hLIV-1 HB + hLIV-1 LE
B9: humanized BR2-14a antibody HCLF (antibody, V domains shown)
VH: B1 VH with R67K, V68A, R72A
VL: B1 VL with F41Y, Q42L, R44K, R50K, R51L
notes: also called hLIV-1 HC + hLIV-1 LF
B10: humanized BR2-14a antibody HELA (antibody, V domains shown)
VH: B2 VH
VL: B1 VL
notes: also called hLIV-1 HE + hLIV-1 LA
B11: humanized BR2-14a antibody HBLC (antibody, V domains shown)
VH: B1 VH with F29I, T30E, S77N
VL: B1 VL with Q42L
notes: also called hLIV-1 HB + hLIV-1 LC
B12: humanized BR2-14a antibody HBLD (antibody, V domains shown)
VH: B1 VH with F29I, T30E, S77N
VL: B1 VL with R50K
notes: also called hLIV-1 HB + hLIV-1 LD
B13: humanized BR2-14a antibody HDLC (antibody, V domains shown)
VH: B1 VH with Y27F, A97N, R98V
VL: B1 VL with Q42L
notes: also called hLIV-1 HD + hLIV-1 LC
B14: humanized BR2-14a antibody HCLA (antibody, V domains shown)
VH: B1 VH with R67K, V68A, R72A
VL: B1 VL
notes: also called hLIV-1 HC + hLIV-1 LA
B15: humanized BR2-14a antibody HDLF (antibody, V domains shown)
VH: B1 VH with Y27F, A97N, R98V
VL: B1 VL with F41Y, Q42L, R44K, R50K, R51L
notes: also called hLIV-1 HD + hLIV-1 LF
B16: humanized BR2-14a antibody HELB (antibody, V domains shown)
VH: B2 VH
VL: B1 VL with F41Y
notes: also called hLIV-1 HE + hLIV-1 LB
B17: humanized BR2-14a antibody HDLB (antibody, V domains shown)
VH: B1 VH with Y27F, A97N, R98V
VL: B1 VL with F41Y
notes: also called hLIV-1 HD + hLIV-1 LB
B18: humanized BR2-14a antibody HBLA (antibody, V domains shown)
VH: B1 VH with F29I, T30E, S77N
VL: B1 VL
notes: also called hLIV-1 HB + hLIV-1 LA
B19: humanized BR2-14a antibody HELC (antibody, V domains shown)
VH: B2 VH
VL: B1 VL with Q42L
notes: also called hLIV-1 HE + hLIV-1 LC
B20: humanized BR2-14a antibody HCLB (antibody, V domains shown)
VH: B1 VH with R67K, V68A, R72A
VL: B1 VL with F41Y
notes: also called hLIV-1 HC + hLIV-1 LB
B21: humanized BR2-14a antibody HBLF (antibody, V domains shown)
VH: B1 VH with F29I, T30E, S77N
VL: B1 VL with F41Y, Q42L, R44K, R50K, R51L
notes: also called hLIV-1 HB + hLIV-1 LF
B22: humanized BR2-14a antibody HCLD (antibody, V domains shown)
VH: B1 VH with R67K, V68A, R72A
VL: B1 VL with R50K
notes: also called hLIV-1 HC + hLIV-1 LD
B23: humanized BR2-14a antibody HCLC (antibody, V domains shown)
VH: B1 VH with R67K, V68A, R72A
VL: B1 VL with Q42L
notes: also called hLIV-1 HC + hLIV-1 LC
B24: humanized BR2-14a antibody HDLA (antibody, V domains shown)
VH: B1 VH with Y27F, A97N, R98V
VL: B1 VL
notes: also called hLIV-1 HD + hLIV-1 LA
B25: humanized BR2-14a antibody HALE (antibody, V domains shown)
VH: B1 VH
VL: B1 VL with R51L
notes: also called hLIV-1 HA + hLIV-1 LE
B26: humanized BR2-14a antibody HALC (antibody, V domains shown)
VH: B1 VH
VL: B1 VL with Q42L
notes: also called hLIV-1 HA + hLIV-1 LC
B27: humanized BR2-14a antibody HALD (antibody, V domains shown)
VH: B1 VH
VL: B1 VL with R50K
notes: also called hLIV-1 HA + hLIV-1 LD
B28: humanized BR2-14a antibody HALB (antibody, V domains shown)
VH: B1 VH
VL: B1 VL with F41Y
notes: also called hLIV-1 HA + hLIV-1 LB
B29: humanized BR2-22a antibody HCLD (antibody, V domains shown)
VH: B1 VH with A61G, T63K, R67K, V68A, R72A, D100N
VL: B1 VL with I29L, I30L, R31H, N32S, D33S, R50K, R55K, V56I, N58T
notes: also called hLIV-22 HC + hLIV-22 LD
B30: humanized BR2-22a antibody HBLF (antibody, V domains shown)
VH: B1 VH with F29I, T30E, A61G, T63K, S77N, D100N
VL: DVVMTQSPLSLPVTLGQPASISCRSSQSLLHSSGNTYLEWYLQRPGQSPKPLIYKISTRFSGVPDRFSGSGSGTDFTLKISRVEAEDVGVYYCFQGSHVPYTFGGGTKVEIKR
notes: also called hLIV-22 HB + hLIV-22 LF
B31: humanized BR2-22a antibody HALF (antibody, V domains shown)
VH: B1 VH with A61G, T63K, D100N
VL: B30 VL
notes: also called hLIV-22 HA + hLIV-22 LF
B32: humanized BR2-22a antibody HBLB (antibody, V domains shown)
VH: B1 VH with F29I, T30E, A61G, T63K, S77N, D100N
VL: B30 VL with L42Q, K50R, P51R
notes: Not the same molecule as HBLB of the BR2-14a series (hLIV14); also called hLIV-22 HB + hLIV-22 LB
B33: humanized BR2-22a antibody HCLC (antibody, V domains shown)
VH: B1 VH with A61G, T63K, R67K, V68A, R72A, D100N
VL: B30 VL with Y41F, K50R, P51R
notes: also called hLIV-22 HC + hLIV-22 LC

The target of the first experiment is T1, human LIV-1. Kind of experiment: competition flow cytometry, CHO cells expressing human LIV-1, vs 5 nM AF647-labelled BR2-14a. On the procedure:
1×10⁵ CHO cells expressing recombinant human LIV-1 in PBS/BSA were aliquoted into each well of a 96-well v-bottom plates on ice. […] Cells were pelleted and washed 3 times with PBS/BSA. The cells were pelleted and resuspended in 125 μL of PBS/BSA. Fluorescence was analyzed by flow cytometry, using percent of saturated fluorescent signal to determine percent labeled murine LIV-1 mAb bound and to subsequently extrapolate the EC50 by fitting the data to a sigmoidal dose-response curve with variable slope.
On to B1, for which the binding result was “no binding (tested: 0.038 nM to 600 nM tested)”.
Molecule B2 showed an EC50 of 24.2 µg/mL.
Same read-out and setting: to B3 belongs 8.8 µg/mL.
As to B4, the binding result was “no binding (tested: 0.038 nM to 600 nM tested)”.
B5 displayed an EC50 of 1.5 µg/mL.
As for B6, the EC50 is 67.9 µg/mL.
As to B7, the binding result is listed as “no binding (tested: 0.038 nM to 600 nM tested)”.
On to B8, for which the binding result is on record as “no binding (tested: 0.038 nM to 600 nM tested)”.
B9 registered an EC50 of 1.3 µg/mL.
On the same count and under the same terms, to B10 belongs 12.5 µg/mL; to B11, 44 µg/mL.
In the case of B12, the EC50 was determined as 17.4 µg/mL.
B13: the binding result is recorded as “no binding (tested: 0.038 nM to 600 nM tested)”.
Still for that read-out and setting: under B14 stands “no binding (tested: 0.038 nM to 600 nM tested)”.
With B15, a half-maximal response (EC50) required 1.4 µg/mL.
The same measure, in the same setting: under B16 stands 173 µg/mL; under B17, 2.3 µg/mL.
On the same count and under the same terms, to B18 belongs 19.9 µg/mL.
On to B19, for which the binding result is on record as “no binding (tested: 0.038 nM to 600 nM tested)”.
With B20, the EC50 is 1.8 µg/mL.
B21 returned an EC50 of 0.7 µg/mL.
Molecule B22 had an EC50 of 66.6 µg/mL.
Take B23: the binding result is listed as “no binding (tested: 0.038 nM to 600 nM tested)”.
Still for that read-out and setting: to B24 belongs “no binding (tested: 0.038 nM to 600 nM tested)”; to B25, “no binding (tested: 0.038 nM to 600 nM tested)”.
On to B26, for which a half-maximal response (EC50) required 25.5 µg/mL.
B27 registered an EC50 of 4.9 µg/mL.
With B28, the EC50 stood at 37.8 µg/mL.

Another experiment concerns the target T1, human LIV-1. Kind of experiment: competition flow cytometry, CHO cells expressing recombinant LIV-1, vs 5 nM AF647-labelled BR2-22a. On the procedure: 1×10⁵ CHO cells expressing recombinant LIV-1 in PBS were aliquoted into each well of a 96-well v-bottom plates on ice. […] Cells were pelleted and washed 3 times with PBS. The cells were then pelleted and resuspended in 125 μL of PBS/BSA. Fluorescence was analyzed by flow cytometery, using percent of saturated fluorescent signal to determine percent labeled humanized BR2-22a antibody bound and to subsequently extrapolate the EC50 by fitting the data to a sigmoidal dose-response curve with variable slope.
All permutations of these five heavy chains and six light chains were then tested in a competition assay compared with BR2-22a (see FIG. 17).
In general terms: A flow cytometer gives signals particle by particle.
Take B29: the binding result is listed as “no binding (tested: 0.038 nM to 600 nM tested)”.
Take B30: the EC50 was found to be 6.5 µg/mL.
On the same count and under the same terms, to B31 belongs 33.2 µg/mL.
On to B32, for which the EC50 was determined as 4.9 µg/mL.
With B33, the binding result is reported as “no binding (tested: 0.038 nM to 600 nM tested)”.

The EC50 is the concentration giving half of the maximal effect.
